Test results from the supplement of paper PMC9170038.

Tested on: MS2 coat protein
Assay: apparent KD of MS2 coat protein; higher = weaker reporter binding
Settings: Eterna round: R107
Procedure, shortened: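 Normalised binding curves from single clusters were fitted, and the median fit for each design is given as apparent KD. The clusters held designed RNA switches transcribed on-chip from Illumina sequencing clusters. These were titrated with SNAP-549-labelled MS2 coat protein (twofold steps from 0.7 or 1.5 nM to 3 µM, 0.8–1.5 h to 10–20 min per step) in 100 mM Tris-HCl pH 7.5, 80 mM KCl, 4 mM MgCl2, without or with constant ligand.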

[1] = input ligand: theophylline 20 uM
[2] = input ligand: tryptophan 2.4 mM
[3] = input ligand: theophylline 2 mM

Row | Sequence | apparent KD of MS2 coat protein (input ligand: arginine 13.2 mM) [nM] | apparent KD of MS2 coat protein [1] [nM] | apparent KD of MS2 coat protein [2] [nM] | apparent KD of MS2 coat protein (input ligand: none) [nM] | apparent KD of MS2 coat protein [3] [nM]
1 | UCACUCCUGAUGGAUACCAGUUACUAACGCAACAUGAGGAUCACCCAUGUGAACACUCAGAACCCUUGGCAGCCAGGAGAACGAA [theeternabot_sameState_MS2_Theo_B_30] | 42.8 | 60.2 | 53.8 |  | 
2 | UGCCGAGACGUGGAUUACCCGUGUACCGAAGGAGCGCCCGAAAGGGCAGGUAGGUCGCGGAGGACAUGAGGAUCACCCAUGUUGA | 32.8 | 43.7 | 54.8 | 73.7 | 96.8
3 | UGUUUGGUGCGCGAGUGUUGGAUAAUUGAUACCAGUGUAGAUGUGCGCCCUUGGCAGCGAAUCCGAACAUGAGGAUCACCCAUGU [5.Z] | 41.2 | 32.3 | 29.5 | 27.1 | 35.7
4 | AACAUGAGGAUCACCCAUGUGUCCUCGAAACGAGGACCGGUACGGCCGCCACUCGAAUAAGGUGUUGACGAAAAGUCAGCACCAA [Mat - Exclusion - Trytophan A - D17] | 111 | 314 |  |  | 338
5 | ACACAUGAGGAUCACCCAUGUCCAAUAGAUACCAGUGAUACGGUGCACCCUUGGCAGCUGUUGCUGAGUGAUGGUUCCCUCGGAA [Same State Theophylline A GF4] | 48.6 | 138 | 112 |  | 
6 | AAGGCACGAGACAUGAGGAUCACCCAUGUUCGAGGACCGGUACGGCCGCCACUCGGUGGACUCAUGGUAAAGCCGGUGAGCCAAA [AK 1.1 SS Trypt (A)] | 18 | 25.2 |  |  | 22.5
7 | GGAUAGGACACGGCCGCCACUAGCUAGGAUACUAGCAACAUUUCCUCGCAUGAGGAUCACCCAUGUAGGACCGGGUGUCCUAUCG | 159 | 638 | 484 | 462 | 495
8 | AUCUCAUAGAGUGAUACCAGACUACAUGAGGAUCACCCAUGUUACAUUUAAAUAUCAUUUGUCCCUUGGCAGCACAUGAAGUACA [JR_Nu_ExcTheophyB_Sub018] | 22.9 | 37.3 | 27.6 |  | 
9 | UCUUUCUAUGUAGAUACCAGCAUGUUAUCUUUCUUUUGACAUGAGGAUCACCCAUGUAAAUGCCCUUGGCAGCUACAUUUUCUUU [SSTHB #3] | 21 | 20.9 | 19.7 |  | 
10 | UAUAUAAUAACAGAUACCAGCGUGUUAUAAAACAUGAGGAUCACCCAUGUAGUGAUCAAGCGCCCUUGGCAGCUGGUAUUAUAUA [7.A] | 123 | 140 | 47.6 |  | 
11 | GAGUCCGCGGCGGCCGCCACUCGCGGCGCCACAUGGCGCCGGGACAUGAGGAUCACCCAUGUCCCGAGGACCGGGCCGAUCCUCA [Same State Typrtophan B GF4] | 16.6 | 35.6 | 14.5 | 18.1 | 33.9
12 | UAGAAACGUACGGCCGCCACUCGGAAUUGGCUCAGACCAUACGUACAUGAGGAUCACCCAUGUUAGAGGACCGGGUAUAAUCUAA [theeternabot_sameState_MS2_Trp_B_46] | 18.5 | 30.8 |  |  | 31
13 | GGAGGCCUUAGGGAUACCAGCUAAGUUGAGUACAUGAGGAUCACCCAUGUGUUCCCAGAGAGCCCUUGGCAGCCCUCAUCCGUUC [theeternabot_sameState_MS2_Theo_B_7] | 14.5 | 13.9 | 12.4 |  | 
14 | UGUACUAUGUGAAGGAGCGAGAAUCCUACAUGAGGAUCACCCAUGUAACAGCGAAAGCUGACUCAGGUAGGUCGCACAUAGUACU [ArgBS - First try] | 111 | 115 | 128 | 130 | 144
15 | AAAAUCCUCCAUGAGGAUCACCCAUGGGAAGGAGCGCCCGAAAGGGCAGGUAGGUCGCCCAUGAGGAUCACCCAUGGAACCUAAA [ArgAX 26 #DoubleMS2 #OpenEnded #AlternativeMS2] | 43.7 | 112 | 43.5 | 56.5 | 118
16 | GGUGUAUCCAUCGAUACCAGCCACCACCGAUAGACCACAUGAGGAUCACCCAUGUUGGGUGGCCCUUGGCAGCGGUGGCUGUGCC [Same State - Theophylline B Attempt #3 (HarryS)] | 79.9 | 592 | 353 |  | 
17 | UGUAUGUGAUCUGAUACCAGAGUGACGCGAAAGCGAACCUGAGGAUCACCCUGGUAAUAACUCCCUUGGCAGCAGAUCGCAUACU | 73.1 | 44.3 | 69.8 | 61.1 | 20.7

Row | Sequence | apparent KD of MS2 coat protein (input ligand: arginine 13.2 mM) [nM] | apparent KD of MS2 coat protein [1] [nM] | apparent KD of MS2 coat protein [2] [nM] | apparent KD of MS2 coat protein (input ligand: none) [nM] | apparent KD of MS2 coat protein [3] [nM]
18 | AGUACAUGAGGAUCACCCAUGUAUCGGUACCGAGGACCGGUACGGCCGCCACUCGCAGGACAUGAGGAUCACCCAUGUGCAGCCG [SSTA DOUBLE!!! :-D #10] | 19.2 | 40.9 | 35 | 36.8 | 43.8
19 | AUUCAUGGAAACAUGACAUAGGGAUCACUCCGAGGACCGGUACGGCCGCCACUCGCGAGGAGGCACAUGAGGAUCACCCAUGUUA [SS Tryp A #4] | 27 | 73.8 |  |  | 92.1
20 | UUGUGGUAGGCGCAUACUCAUUUAUACAAGCGAGGACCGGUACGGCCGCCACUCGGAAUAAAACAUGAGGAUCACCCAUGUACCG [theeternabot_exclusion_MS2_Trp_A_50] | 12.9 | 17.1 |  |  | 14.6
21 | UGGAUAAGGGUAAAUAGGAUAAGUACAGAAGGAGCGCGAAUAAACGCAGGUAGGUCGCUGGACAUGAGGAUCACCCAUGUAAAUG [Same State Arginine A GF 22] | 45.9 | 77.1 | 50 | 48.8 | 57.6
22 | UAAAAUAAAAGGGUGAAGGUAUAAACAGAUACCAGCCAGAUAACUGGCCCUUGGCAGCUGAAUGACAUGAGGAUCACCCAUGUCU [TheoAS 21 #OpenEnded #Ms2Late] | 13.1 | 17.7 | 14.5 |  | 
23 | UGUCAGCGAAAGUUGACAUGUCUUACCGGUCGAGGACCGGUACGGCCGCCACUCGAUCACUCGCACAUGAGGAUCACCCAUGUCG [SS Tryp A #20] | 11.7 | 14.5 |  |  | 13.9
24 | AGGACGGCCGGAAGGAGCGGUACAUGAGGAUCACCCAUGUACCUCUGGGCAUCCGUAGUGUGCCAGGUAGGUCGCCGGUUGCGGG [Veatgema] | 11.1 | 14.5 | 10.8 | 9.88 | 12.1
25 | AUUCAUGGAAACAUGACAUACAUUACCGGUCGAGGACCGGUACGGCCGCCACUCGGUUGGUGGCACAUGAGGAUCACCCAUGUUA [SS Tryp A #11] | 25.2 | 44.2 |  |  | 30
26 | UUCUACAUGAGGAUCACCCAUGUGGGUGAUACCAGCACUUUUUGGUGCCCUUGGCAGCACAUGAGAAUGCCGUAAAAUCGGCGAU [Ceanteis] | 74.7 | 577 | 503 |  | 
27 | ACCGCGGUAUCGGCCGCCACUUGUGGGUUAAAUCUGGUACAUGAGGAUCACCCAUGUGUCUCCUCGAGGACCGGGAUAGCGUGAC [Geaner] | 97.7 | 168 |  |  | 211
28 | AUAACAUGAGGAUCACCCAUGUAAGCAGAUACCAGCUAGGAAACUAGCCCUUGGCAGCUGCAUUCCUCAUGUAGGUAUCUGCUAA [(M1)-(M2)-(T1)-(T2)-(M)'-(T)'_Design4] | 18.4 | 22.1 | 16.1 |  | 
29 | CACGAAAGAUCGGCCGCCACUAGCCUGUGUGUACUAGCACAUGAGGAUCACCCAUGUUCUUGCGUUAGGACCGGGAUUGAGCGUG [#05 Exclusion Tryptophan B] | 17.1 | 27.9 | 25.5 | 26.8 | 33.9
30 | AAGACAUGAGGAUCACCCAUGUGGAGGGAUACCAGCCUGUGUGUGGGCCCUUGGCAGCUUAAAUUUAAUUUAAUUAAAUAAAUUU [Same State - Theophylline A] | 27.6 | 41.6 | 34.9 |  | 
31 | AACCGAGGCUAUCCUCUAAGAAAAUGUGAUACCAGAAUAAUUUUAUUCCCUUGGCAGCAUGACAUGAGGAUCACCCAUGUGUCUU [SSTheo A #6] | 73.6 | 131 | 138 |  | 
32 | UACAUGAGGAUCACCCAUGUAUGAAUAGAUACCAGAUAAAAUAAGGUCCCUUGGCAGCUAGUGAAUCGAGGGUGGGUAUCAUGAU [#12 Exclusion-TheophyllineA] | 9.47 | 12.7 | 9.93 |  | 
33 | AAUUCCUCACAUGAGGAUCACCCAUGUGAAGGAGCGCCGAAUAAGGCAGGUAGGUCGCACAUGGAAACCGCUACGAAAGUAGCAA | 13.1 | 64.8 | 21.3 | 20.5 | 20.5
34 | CGGGAACGAUAUGAUACCAGCCUGCGAAAGAAUGCUUAGUACAUGAGGAUCACCCAUGUAGGCCCUUGGCAGCAUCGACUCAAGU [theeternabot_exclusion_MS2_Theo_B_4] | 13.1 | 18.1 | 13.2 |  | 
